Experimental findings from patent US20230167174A1 are described below.

Bounds are passed on as bounds.

Assay [1] addresses T1, human TREM2 endogenously expressed (hM2A macrophages, THP1-B5 cells, iPS derived microglia) (human) (UniProt Q9NZC2).
T1 sequence (looked up): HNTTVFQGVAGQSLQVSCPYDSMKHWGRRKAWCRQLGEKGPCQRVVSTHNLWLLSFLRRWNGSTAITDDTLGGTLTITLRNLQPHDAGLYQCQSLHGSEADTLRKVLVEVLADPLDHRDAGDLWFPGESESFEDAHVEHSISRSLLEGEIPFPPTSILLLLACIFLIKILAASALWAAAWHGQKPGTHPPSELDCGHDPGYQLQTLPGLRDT
As to the kind of experiment: cell-based or functional assay.

In assay [2] the target is T2, human TREM2 on CHO-hDAP12-hTREM2 cells (human) (UniProt Q9NZC2).
T2 sequence: T1 sequence (looked up)
In words: cell-based or functional assay.

For assay [3], the target named is cyTREM2 ECD (19-174)-APP-Avi (cynomolgus). In words: SPR, label free kinetics.
Assay [4] deals with T3, hTREM2 ECD (19-174)-hFc (human) (UniProt Q9NZC2).
T3 sequence (chain, biotinylated where printed -bio): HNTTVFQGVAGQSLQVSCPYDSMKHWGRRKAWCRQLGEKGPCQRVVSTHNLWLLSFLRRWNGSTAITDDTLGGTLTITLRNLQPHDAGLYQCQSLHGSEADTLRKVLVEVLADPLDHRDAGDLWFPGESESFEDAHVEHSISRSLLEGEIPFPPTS
As to the kind of experiment: SPR, label free kinetics.

In assay [5] the target is T1, human TREM2 endogenously expressed (hM2A macrophages, THP1-B5 cells, iPS derived microglia) (human). As to the kind of experiment: FACS, hM2A, median of 4 donors. (In general: A flow cytometer gives signals particle by particle.)
Assay [6] concerns the target cyTREM2 ECD (19-174)-hFc (cynomolgus). As to the kind of experiment: recombinant protein binding.
Assay [7] concerns the target T4, hTREM2 IgSF-hTREM1 stalk-hFc (human) (UniProt Q9NZC2).
T4 sequence (looked up): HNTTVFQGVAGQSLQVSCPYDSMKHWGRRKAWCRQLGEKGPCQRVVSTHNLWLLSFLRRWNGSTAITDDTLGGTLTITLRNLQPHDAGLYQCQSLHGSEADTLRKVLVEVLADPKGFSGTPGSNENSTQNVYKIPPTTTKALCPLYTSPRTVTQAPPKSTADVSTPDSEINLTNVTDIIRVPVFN
As to the kind of experiment: recombinant protein binding.

Assay [8] has as its target T3, hTREM2 ECD (19-174)-hFc (human). In words: recombinant protein binding.
In assay [9] the target is T2, human TREM2 on CHO-hDAP12-hTREM2 cells (human). In words: FACS, CHO-hTREM2.
The target of assay [10] is T1, human TREM2 endogenously expressed (hM2A macrophages, THP1-B5 cells, iPS derived microglia) (human). In words: FACS, hM2A, donor 2.
Assay [11] addresses cyTREM2 ECD (19-174)-APP-Avi (cynomolgus). In words: SET.
For assay [12], the target named is T3, hTREM2 ECD (19-174)-hFc (human). As to the kind of experiment: SET.
The target of assay [13] is T1, human TREM2 endogenously expressed (hM2A macrophages, THP1-B5 cells, iPS derived microglia) (human). As to the kind of experiment: FACS, hM2A, donor 4.
Assay [14] has the same target. As to the kind of experiment: FACS, hM2A.
Assay [15] has the same target. In words: FACS, hM2A, donor 1.
Assay [16] concerns the target cynomolgus TREM2 on CHO-hDAP12-cyTREM2 cells (cynomolgus). In words: FACS, CHO-cyTREM2.
Assay [17] has as its target T3, hTREM2 ECD (19-174)-hFc (human). As to the kind of experiment: SET screening.
Assay [18] deals with T1, human TREM2 endogenously expressed (hM2A macrophages, THP1-B5 cells, iPS derived microglia) (human). As to the kind of experiment: FACS, hM2A, donor 3.

Sequence of cynomolgus TREM2 on CHO-hDAP12-cyTREM2 cells (cynomolgus) (chain, as listed by the source): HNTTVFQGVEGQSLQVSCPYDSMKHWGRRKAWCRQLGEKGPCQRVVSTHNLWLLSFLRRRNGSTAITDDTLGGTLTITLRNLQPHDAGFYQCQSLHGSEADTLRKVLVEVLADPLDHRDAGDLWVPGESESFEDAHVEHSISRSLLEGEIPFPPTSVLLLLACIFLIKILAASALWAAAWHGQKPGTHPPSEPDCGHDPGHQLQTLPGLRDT

B1: MOR044746 (antibody, from a related filing, V domains shown)
VH: QVQLQQSGPGLVKPSQTLSLTCAISGDSVSSSSAAWNWIRQSPSRGLEWLGHIGYRSKWYNEYAVSVKSRITINPDTSKNQFSLQLNSVTPEDTAVYYCARGMYGSVPYKEGYYFDIWGQGTLVTVSS
VL: DIQMTQSPSSLSASVGDRVTITCRASQGISSDLNWYQQKPGKAPKLLIYAASNLQSGVPSRFSGSGSGTDFTLTISSLQPEDFATYYCQQYTDESMTFGQGTKVEIK
As usually defined, the EC50 is the concentration at which the effect is half-maximal. Low values mean greater potency, high ones weaker potency. As for B1, in assay [1], the Fold TREM2 cell surface increase compared to isotype (hM2A, 100 nM) worked out at 5.1 fold. This molecule also returned a TREM2 activation (fold in RGA) in assay [1] of 1.3 fold. In assay [1], the lowest active concentration, phagocytosis in hM2A is 1 nM. The Internalization compared to parental after 6 h in assay [2] was found to be 0.7 fold. The molecule also yielded an Internalization; fold over background after 6 h in assay [2] of 33.3 fold. For the same molecule, the Kd in assay [3] was 4 pM; in [4], 3 pM; in assay [11] it was 4 pM; in [12] it was 3 pM; in assay [17] it was less than 0.6 nM. The EC50 was 0.59 nM in assay [5]; 0.16 nM in assay [9]; 0.54 nM in assay [10]; 0.64 nM in assay [13]; less than 2 nM in [14]; 0.73 nM in assay [15]. Moreover, the EC50 was found to be 0.65 nM in assay [16] and 0.54 nM in [18]. In addition, the results for the S/BG in [6], in [7] and in [8] were more than 5, more than 20 and more than 5, respectively.
